biological target: recombinant His-tagged CD38 (Homo sapiens, UniProt P28907); test: Pepscan-based ELISA of His-tagged CD38 on CD31 peptide arrays; type: binding; settings: mimic type BET (β-turn mimic, mP2 CLIPS); sample with the highest signal
From the text: Different sets of sCD31 peptides were synthesized according to the following designs. Note that actual order of peptides on mini-cards in some was randomized. • Set #1 • Mimic type: linear • Label: LIN15 • Linear peptides of 15 consecutive amino acid residues in length, derived from the target sequence of sCD31 with an offset of […]. • Set #2 • Mimic type: single loop (mP2 CLIPS) • Label: LOOP7 • Constrained peptides of 9 amino acid residues in length. On positions 2-8 are incorporated 7 consecutive amino acid residues derived from the target sequence of sCD31 with an offset of 1.3 residues. Cys residues were inserted on positions 1 and 9 and joined by mP2 CLIPS in order to create a loop mimic. Native Cys residues, if present, were replaced by Ser residues. • Set #3 • Mimic type: single loop, (mP2 CLIPS) • Label: LOOP15 • Constrained peptides of 17 amino acid residues in length. On positions 2-16 are incorporated 15 consecutive amino acid residues derived from the target sequence of sCD31 with an offset of […]. Cys residues were inserted on positions 1 and 17 and joined by mP2 CLIPS in order to create a loop mimic. Native Cys residues, if present, were replaced by Ser residues. • Set #4 • Mimic type: β-turn peptide mimics (mP2 CLIPS) • Label: BET • β-turn peptide mimics of 22 amino acid residues in length. On positions 2-21 are incorporated 20 consecutive amino acid residues derived from the target sequence of sCD31 with an offset of 1.3 residues. Residues on positions 11 and 12 are replaced by a Pro-Gly motif in order to induce the β-turn formation. Cys residues were inserted on positions 1 and 22 and joined by mP2 CLIPS in order to stabilize the mimic. Native Cys residues, if present, were replaced by Ser residues.
To reconstruct epitopes of sCD31, a library of peptide-based peptide mimics was synthesized using Fmoc-based solid-phase peptide synthesis. An amino functionalized polypropylene support was obtained by grafting with a hydrophilic polymer formulation, followed by reaction with t-butyloxycarbonyl-hexamethylenediamine (BocHMDA) using dicyclohexylcarbodiimide (DCC) with N-hydroxybenzotriazole (HOBt) and subsequent cleavage of the Boc-groups using trifluoroacetic acid (TFA).
Standard Fmoc-peptide synthesis was used to synthesize peptides on the amino-functionalized solid support by custom modified JANUS liquid handling stations (Perkin Elmer).
Synthesis of structural mimics was done using CLIPS technology. CLIPS technology allows to structure peptides into single loops, double loops, triple loops, sheet-like folds, helix-like folds, and combinations thereof. CLIPS templates are coupled to cysteine residues. The side-chains of multiple cysteines in the peptides are coupled to one or two CLIPS templates. For example, a 0.5 mM solution of the P2 CLIPS (2,6-bis(bromomethyl)pyridine) is dissolved in ammonium bicarbonate (20 mM, pH 7.8)/acetonitrile (1:3, v/v). This solution is added onto the peptide arrays. The CLIPS template binds to side-chains of two cysteines as present in the solid-phase bound peptides of the peptide-arrays (455 wells plate with 3-µL wells). The peptide arrays are gently shaken in the solution for 30 to 60 minutes while completely covered in solution.
Finally, the peptide arrays are washed extensively with excess of H2O and sonicated in disrupt-buffer containing 1% SDS / 0.1 % 2,2′-(ethylenedioxy)diethanethiol in PBS (pH 7.2) at 70° C. for 30 minutes, followed by sonication in H2O for another 45 minutes.
The binding of the sample (recombinant His-tagged CD38; 9 µg/mL and 20 µg/mL) to each of the synthesized peptides was tested in a pepscan-based ELISA. The peptide arrays were incubated with primary sample solution (overnight at 4° C.). […]

Value (binding intensity of His-tagged CD38), BET conformational peptide array [mAU] | Substance
679 | 265 (CTTSHVKPQHPGLFYKDDVLFC) [compound 265]
725 | 266 (CTSHVKPQHQPGFYKDDVLFYC) [compound 266]
662 | 267 (CSHVKPQHQMPGYKDDVLFYNC) [compound 267]
792 | 268 (CVKPQHQMLFPGDDVLFYNISC) [compound 268]
641 | 269 (CKPQHQMLFYPGDVLFYNISSC) [compound 269]
378 | 270 (CYKDDVLFYNPGSMKSTESYFC) [compound 270]

same assay, conditions: mimic type LOOP7 (single loop, mP2 CLIPS); sample with the highest signal

Value (binding intensity of His-tagged CD38), LOOP7 conformational peptide array [mAU] | Substance
625 | 206 (CVNITELFC) [compound 206]
512 | 207 (CNITELFSC) [compound 207]
287 | 208 (CRISYDAQC) [compound 208]
570 | 209 (CSYDAQFEC) [compound 209]
628 | 210 (CYDAQFEVC) [compound 210]
429 | 211 (CDAQFEVIC) [compound 211]
402 | 212 (CNPTEDVEC) [compound 212]
407 | 213 (CPTEDVEYC) [compound 213]
556 | 214 (CDVEYQSVC) [compound 214]
378 | 215 (CDEVQISIC) [compound 215]
529 | 216 (CEVQISILC) [compound 216]
416 | 217 (CVQISILSC) [compound 217]
420 | 218 (CESGEDIVC) [compound 218]
573 | 219 (CSGEDIVLC) [compound 219]
442 | 220 (CGEDIVLQC) [compound 220]
389 | 221 (CDIVLQSAC) [compound 221]
385 | 222 (CKEQEGEYC) [compound 222]
619 | 223 (CQEGEYYSC) [compound 223]
650 | 224 (CEGEYYSTC) [compound 224]
552 | 225 (CGEYYSTAC) [compound 225]
477 | 226 (CYYSTAFNC) [compound 226]

same assay, conditions: mimic type LOOP15 (single loop, mP2 CLIPS); sample with the highest signal

Value (binding intensity of His-tagged CD38), LOOP15 conformational peptide array [mAU] | Substance
431 | 227 (CHVKPQHQMLFYKDDVC) [compound 227]
411 | 228 (CVKPQHQMLFYKDDVLC) [compound 228]
467 | 229 (CKPQHQMLFYKDDVLFC) [compound 229]
600 | 230 (CQHQMLFYKDDVLFYNC) [compound 230]
564 | 231 (CHQMLFYKDDVLFYNIC) [compound 231]
646 | 232 (CQMLFYKDDVLFYNISC) [compound 232]
630 | 233 (CMLFYKDDVLFYNISSC) [compound 233]
497 | 234 (CLFYKDDVLFYNISSMC) [compound 234]
371 | 235 (CVLFYNISSMKSTESYC) [compound 235]
552 | 236 (CFYNISSMKSTESYFIC) [compound 236]
370 | 237 (CYNISSMKSTESYFIPC) [compound 237]
478 | 238 (CNISSMKSTESYFIPEC) [compound 238]
499 | 239 (CISSMKSTESYFIPEVC) [compound 239]
343 | 240 (CSSMKSTESYFIPEVRC) [compound 240]
325 | 241 (CMKSTESYFIPEVRIYC) [compound 241]
528 | 242 (CKSTESYFIPEVRIYDC) [compound 242]
660 | 243 (CSTESYFIPEVRIYDSC) [compound 243]
465 | 244 (CTESYFIPEVRIYDSGC) [compound 244]
373 | 245 (CESYFIPEVRIYDSGTC) [compound 245]

Value (binding intensity of His-tagged CD38), LOOP15 conformational peptide array [mAU] | Substance
416 | 246 (CYFIPEVRIYDSGTYKC) [compound 246]
516 | 247 (CKREKNSRDQNFVILEC) [compound 247]
1073 | 248 (CREKNSRDQNFVILEFC) [compound 248]
566 | 249 (CEKNSRDQNFVILEFPC) [compound 249]
624 | 250 (CKNSRDQNFVILEFPVC) [compound 250]
634 | 251 (CDQNFVILEFPVEEQDC) [compound 251]
729 | 252 (CQNFVILEFPVEEQDRC) [compound 252]
524 | 253 (CNFVILEFPVEEQDRVC) [compound 253]
550 | 254 (CFVILEFPVEEQDRVLC) [compound 254]
320 | 255 (CSTIQVTHLAQEFPEIC) [compound 255]
504 | 256 (CTIQVTHLAQEFPEIIC) [compound 256]
797 | 257 (CIQVTHLAQEFPEIIIC) [compound 257]
617 | 258 (CQVTHLAQEFPEIIIQC) [compound 258]
343 | 259 (CVTHLAQEFPEIIIQKC) [compound 259]
287 | 260 (CSSRISKVSSIVVNITC) [compound 260]
567 | 261 (CRISKVSSIVVNITELC) [compound 261]
795 | 262 (CISKVSSIVVNITELFC) [compound 262]
593 | 263 (CSKVSSIVVNITELFSC) [compound 263]
211 | 264 (CKVSSIVVNITELFSKC) [compound 264]

— patent US20230357354A1, “CD38-BINDING CD31 PEPTIDES AND USES THEREOF” (ENCEFA, priority 2020, published 2023)
